Test results as given in US20020127543A1, “Methods and compositions utilizing hepatitis C virus molecules” (priority 1999, published 2002).
Where two headings read alike, the source gives them in different places.

Legend:
[1] = tested on: eIF3 (eukaryotic initiation factor 3 complex); assay: EMSA
[2] = target: 19mer control RNA; assay: FRET titration of fluorescein-labelled control RNA with Dabsyl-labelled peptides; format: binding
Source text: (§1) Oligoribonucleotides with a fluorescein attached to the 5′ end of the molecule (shown in FIG. 6a) were synthesised using conventional oligoribonucleotide techniques. A 19 mer (FIG. 6b) was used for control purposes
(§2) Fluoresein-labeled RNA was titrated with Dabsyl-labelled peptides. The donor (fluorescein) fluoresence was excited at 490 nm. In the presence of peptide, binding leads to a quenching of fluorescence by the non-fluorescent acceptor dye Dabsyl. The quenching curves allow the determination of binding affinities. Fluorescein-labelled RNA containing the mIRES was titrated with various peptides.
(§3) FIG. 7 illustrates binding curves for RNA containing the mIRES titrated with various peptides. Experimental conditions: Fam-labelled RNA (10 nM) was titrated with Dabsyl-labelled peptide in 50 mM Tris/Cl, pH7.4, 110 mM KCl, 5ug/ml BSA, 0.01% Triton X-100, 1%DMSO. Fluorescence (excitation 490 nm/emission at 535 nm) was determined in 96-well plates using a Fluorescence plate reader. The assay volume was 100 μl.
(§4) Dissociation constants were determined by fitting a binding isotherm (1-site-binding) to the titration data using the equation
(§5) Y=((Fmax−Fmin)−((Fmax−Fmin)*c/(Kd+c)))+Fmin

[3] = target: HCV mIRES RNA; assay: FRET titration of fluorescein-labelled RNA with Dabsyl-labelled peptides; format: binding; details: HCV loopIII RNA 10 nM, pH7.4, 110 mM KCl
Source text: as §1, §2, §3, §4, §5

[4] = tested on: Dabsyl peptide with KKRQR core (synthetic); details: FRET quenching
[5] = tested on: Dabsyl peptide with KKKKK core (synthetic); details: FRET quenching
[6] = tested on: Dabsyl peptide with KKQRR core (synthetic); details: FRET quenching
[7] = tested on: Dabsyl peptide with KKQKR core (synthetic); details: FRET quenching
[8] = tested on: Dabsyl peptide with KKKQR core (synthetic); details: FRET quenching
[9] = tested on: Dabsyl peptide with RRRRR core (synthetic); details: FRET quenching, 50 mM Tris pH 7.4, 110 mM KCl
[10] = tested on: Dabsyl peptide with QQQQQ core (synthetic); details: FRET quenching, R2 N/A
[11] = target: IIIB-Dabcyl RNA; assay: Inhibition of paromomycin-TAMRA binding to IIIB-Dabcyl RNA (FRET); parameters: species or system HCV
Procedure: Measurements were made in a 2 mL cuvette. Increasing amounts of IIIB-Dabcyl RNA (corresponding to the amounts shown in the figure) were added to a solution of 10 nM paromomycin-TAMRA in the presence of 50 mM Tris.HCl pH7.5, 80 mM KCl. For each titration point emission spectra were acquired using a fixed wavelength of 552 nm with the excitation slits set to 5 nm and the emission slits set to 10 nm. Emission spectra were acquired over the range 570-600 nm. Two binding curves are presented, the first in the absence of a test molecule (FIG. 8a) and the second in the presence of 10 μM neomycin (FIG. 8b).

[12] = relative to DIII, no complex formed

How did the binding signal [1, 12] turn out when tRNA was run?
The binding signal was 0.1%.

HCV IRES Domain II (DII) was tested. Which binding signal [1, 12] did it give?
Its binding signal is 0.5%.

For QQQQQ, which Kd [2] is on record?
The Kd was over 0.5 µM.

What about the Kd [3] of the same substance?
Its Kd is over 0.5 µM.

Which Kd ([4]; 50 mM Tris pH 7.4, 110 mM KCl) does the source give for HCV mIRES RNA (loop III, FIG. 6a) here?
Its Kd is 0.104 µM.

What about the Kd ([5]; 50 mM Tris pH 7.4, 110 mM KCl) of the same substance?
The Kd was 0.049 µM.

What about the Kd ([6]; 50 mM Tris pH 7.4, 110 mM KCl) of the same substance?
Its Kd is 0.041 µM.

And the Kd ([7]; 50 mM Tris pH 7.4, 110 mM KCl)?
Its Kd is over 0.5 µM.

And the Kd ([8]; 50 mM Tris pH 7.4, 110 mM KCl)?
Its Kd is 0.09 µM.

What about the Kd ([9]; ±10, 10 nM RNA) of the same substance?
Its Kd is 0.03 µM.

What about the Kd ([10]; 50 mM Tris pH 7.4, 110 mM KCl) of the same substance?
The Kd was over 0.5 µM.

Which binding signal ([1]; reference, 60 mM KCl, 3 mM MgCl2, 200 nM tRNA, on ice, relative affinity by unlabelled RNA competition) does the source give for HCV IRES Domain III (DIII) here?
The binding signal was 100%.

For KKRQR, which Kd [2] is on record?
Its Kd is over 0.5 µM.

What about the Kd [3] of the same substance?
The Kd was 0.104 µM.

With KKQRR as the substance, how does the Kd [2] read?
The Kd was over 0.5 µM.

And the Kd [3]?
The Kd was 0.041 µM.

Which Kd ([4]; R2 N/A) does the source give for 19-mer control RNA (FIG. 6b) here?
Its Kd is over 0.5 µM.

And the Kd ([5]; R2 N/A)?
Its Kd is over 0.5 µM.

What about the Kd ([6]; R2 N/A) of the same substance?
The Kd was over 0.5 µM.

What about the Kd ([7]; R2 N/A) of the same substance?
Its Kd is over 0.5 µM.

And the Kd ([8]; R2 N/A)?
The Kd was over 0.5 µM.

And the Kd [9]?
Its Kd is 0.194 µM.

And the Kd [10]?
The Kd was over 0.5 µM.

With Neomycin as the substance, how does the Ki ([11]; 10 nM paromomycin-TAMRA, 10 μM neomycin) read?
Its Ki is 0.52 µM.

What about the “Inhibition of paromomycin-TAMRA binding to IIIB-Dabcyl RNA (in words)” value ([11]; 10 uM) of the same substance?
Its value is “inhibits paromomycin-TAMRA binding to IIIB-Dabcyl RNA”.

For KKKKK, which Kd [2] is on record?
Its Kd is over 0.5 µM.

What about the Kd [3] of the same substance?
Its Kd is 0.049 µM.

What does the source list for RRRRR?
Kd [2]: 0.194 µM; Kd [3]: 0.03 ± 0.01 µM

With KKKQR as the substance, how does the Kd [2] read?
The Kd was over 0.5 µM.

What about the Kd [3] of the same substance?
Its Kd is 0.09 µM.

How did the Kd [2] turn out when KKQKR was run?
The Kd was over 0.5 µM.

And the Kd [3]?
The Kd was over 0.5 µM.
